This note sets out measurements from patent US20040059519A1.

Where “and” joins values, the source holds several entries; their conditions need not be identical. Equal values may be shown once.

In experiment [1] the target is Alpha fetoprotein (UniProt P02771). In words: multiplex sandwich, S10473 capture beads; AFP 2 ng/mL, washed.
The target is the same in experiment [2]. Kind of experiment: multiplex sandwich, S10473 capture beads; AFP 31 ng/mL, washed.
For experiment [3] the target is unchanged. In words: multiplex sandwich, S10473 capture beads; AFP 62 ng/mL, washed.
Experiment [4] has the same target. In words: multiplex sandwich, S10473 capture beads; AFP 0.5 ng/mL, washed.
The target is the same in experiment [5]. In words: multiplex sandwich, S10473 capture beads; AFP 125 ng/mL, washed.
For experiment [6] the target is unchanged. In words: multiplex sandwich, S10473 capture beads; AFP 0.25 ng/mL, washed.
For experiment [7] the target is unchanged. Kind of experiment: multiplex sandwich, S10473 capture beads; AFP 1000 ng/mL, washed.
Experiment [8] has the same target. Kind of experiment: multiplex sandwich, S10473 capture beads; AFP 125 ng/mL, no wash.
Experiment [9] shares this target. In words: multiplex sandwich, S10473 capture beads; AFP 0.25 ng/mL, no wash.
For experiment [10], the target named is Human chorionic gonadotropin (human) (UniProt P01215). Kind of experiment: MAB602 capture beads, flow cytometry; hCG 0.1 ng/mL, anti-AFP probe.
Chain of UniProt P01215 (P01215 25-116, chain 1 of 2, other chains not shown): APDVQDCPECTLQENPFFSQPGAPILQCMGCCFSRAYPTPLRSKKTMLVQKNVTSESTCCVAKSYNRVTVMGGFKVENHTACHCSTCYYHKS
Experiment [11] has the same target. In words: MAB602 capture beads, flow cytometry; hCG 10.0 ng/mL, anti-AFP probe.
In experiment [12] the target is Alpha fetoprotein (UniProt P02771). Kind of experiment: anti-AFP capture beads, flow cytometry; AFP 0.1 ng/mL, anti-AFP probe. In general terms: In flow cytometry, cells or beads pass a laser one at a time.
Experiment [13] has as its target Human chorionic gonadotropin (human) (UniProt P01215). In words: anti-AFP capture beads, flow cytometry; hCG 1.0 ng/mL, anti-AFP probe.
In experiment [14] the target is Alpha fetoprotein (UniProt P02771). In words: anti-AFP capture beads, flow cytometry; AFP 100.0 ng/mL, anti-AFP probe.
The target of experiment [15] is Human chorionic gonadotropin (human) (UniProt P01215). In words: anti-AFP capture beads, flow cytometry; hCG 1000.0 ng/mL, anti-AFP probe.
Experiment [16] concerns the target Alpha fetoprotein (UniProt P02771). Kind of experiment: multiplex no-wash sandwich, S10473 beads; Negative serum, AFP 2 U/mL.
The target of experiment [17] is Neutravidin (deglycosylated avidin) (UniProt P02701). In words: multiplex, Neutravidin bead 40/40 without peptide, flow cytometry.
Chain of UniProt P02701 (P02701 25-152 limits assumed): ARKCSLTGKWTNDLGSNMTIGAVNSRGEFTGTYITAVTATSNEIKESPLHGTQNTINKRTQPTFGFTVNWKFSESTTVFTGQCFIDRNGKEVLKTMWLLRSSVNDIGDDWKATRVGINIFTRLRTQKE
The target is the same in experiment [18]. In words: multiplex, Neutravidin bead 70/40 without peptide, flow cytometry.
Experiment [19] shares this target. In words: single-analyte, Neutravidin bead 40/40 without peptide, flow cytometry.
Experiment [20] has the same target. Kind of experiment: single-analyte, Neutravidin bead 40/70 without peptide, flow cytometry.
For experiment [21] the target is unchanged. Kind of experiment: single-analyte, Neutravidin bead 60/70 without peptide, flow cytometry.
Experiment [22] concerns the target Human chorionic gonadotropin (human) (UniProt P01215). Kind of experiment: sandwich, MAB602 capture beads, flow cytometry; hCG 0 ng/mL.
For experiment [23] the target is unchanged. Kind of experiment: sandwich, MAB602 capture beads, flow cytometry; hCG 20 ng/mL.
The target is the same in experiment [24]. Kind of experiment: sandwich, MAB602 capture beads, flow cytometry; hCG 200 ng/mL.
Experiment [25] has the same target. Kind of experiment: multiplex sandwich, MAB602 capture beads; hCG 8 ng/mL, washed.
For experiment [26] the target is unchanged. In words: multiplex sandwich, MAB602 capture beads; hCG 0 ng/mL, no wash.
Experiment [27] has the same target. In words: multiplex sandwich, MAB602 capture beads; hCG 1 ng/mL, no wash.
Experiment [28] has the same target. In words: multiplex sandwich, MAB602 capture beads; hCG 62 ng/mL, washed.
The target is the same in experiment [29]. Kind of experiment: sandwich, MAB602 capture beads, flow cytometry; hCG 20000 ng/mL.
For experiment [30] the target is unchanged. Kind of experiment: multiplex sandwich, MAB602 capture beads; hCG 0.5 ng/mL, washed.
Experiment [31] shares this target. Kind of experiment: multiplex sandwich, MAB602 capture beads; hCG 0.5 ng/mL, no wash.
The target of experiment [32] is Alpha fetoprotein (UniProt P02771). Kind of experiment: MAB602 capture beads, flow cytometry; AFP 1.0 ng/mL, anti-hCG probe.
Experiment [33] has the same target. In words: MAB602 capture beads, flow cytometry; AFP 100.0 ng/mL, anti-hCG probe.
Experiment [34] shares this target. Kind of experiment: anti-AFP capture beads, flow cytometry; AFP 0.0 ng/mL, anti-hCG probe.
Experiment [35] shares this target. Kind of experiment: anti-AFP capture beads, flow cytometry; AFP 0.1 ng/mL, anti-hCG probe.
In experiment [36] the target is Human chorionic gonadotropin (human) (UniProt P01215). Kind of experiment: MAB602 capture beads, flow cytometry; hCG 1000.0 ng/mL, anti-hCG probe.
Experiment [37] has the same target. Kind of experiment: multiplex no-wash sandwich, MAB602 beads; serum Level 2, hCG 26.4 mU/mL.
Experiment [38] shares this target. Kind of experiment: bead sandwich, flow cytometry; capture A2 (MAB 602) beads, hCG 20.0 ug/mL.
The target is the same in experiment [39]. In words: bead sandwich, flow cytometry; capture A2 (MAB 602) beads, no hCG (background).

Chain of UniProt P02771 (P02771 19-609 limits assumed): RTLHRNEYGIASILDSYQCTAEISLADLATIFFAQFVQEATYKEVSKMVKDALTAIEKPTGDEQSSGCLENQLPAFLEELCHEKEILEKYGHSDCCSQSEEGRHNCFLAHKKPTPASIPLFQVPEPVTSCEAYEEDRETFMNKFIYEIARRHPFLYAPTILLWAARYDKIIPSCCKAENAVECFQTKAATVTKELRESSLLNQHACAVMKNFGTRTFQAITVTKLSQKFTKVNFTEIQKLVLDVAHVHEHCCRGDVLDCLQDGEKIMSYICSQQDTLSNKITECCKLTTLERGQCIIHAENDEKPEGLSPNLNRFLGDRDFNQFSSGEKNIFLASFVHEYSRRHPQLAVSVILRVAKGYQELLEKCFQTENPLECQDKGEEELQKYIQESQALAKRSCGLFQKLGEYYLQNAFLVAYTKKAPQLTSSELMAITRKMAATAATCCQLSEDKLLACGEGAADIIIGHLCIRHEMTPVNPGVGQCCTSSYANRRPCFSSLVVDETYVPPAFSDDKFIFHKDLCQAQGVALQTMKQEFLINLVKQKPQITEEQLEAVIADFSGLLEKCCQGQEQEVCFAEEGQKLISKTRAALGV

Regarding “M20077 affinity purified polyclonal anti-AFP antibody, Bodipy FL-CASE labeled”, the MIF of Fm in the experiment with Alpha fetoprotein [1] worked out at 59; with Alpha fetoprotein [2] it was 612; with Alpha fetoprotein [3] it was 814; in the experiment with Alpha fetoprotein [4] it was 25; with Alpha fetoprotein [5], 1050; with Alpha fetoprotein [6], 24. The MIF of Fm came out at 1480 in the experiment with Alpha fetoprotein [7]; 1060 with Alpha fetoprotein [8]; 17 with Alpha fetoprotein [9]; 49 in experiment [10]; 47 in experiment [11]; 44 in the experiment with Alpha fetoprotein [12]. In addition, the MIF of Fm in experiment [13] amounted to 44; with Alpha fetoprotein [14], 356; in [15] it was 78. Further, in the experiment with Alpha fetoprotein [16], the MIF AVG is 12.3. The MIF of FL1 with Alpha fetoprotein [16] is 11 and 13.
In the case of MAB 384, Bodipy FL-X labeled (antibody), the MIF of Fm is 25 in experiment [17]; 21 in experiment [18]; 44 in [19]; 43 in [20]; 48 in [21].
Turning to “AB633 affinity purified polyclonal anti-hCG antibody, Bodipy FL-CASE labeled”, the MIF of Fm in experiment [22] is 128 and 111; in [23] it was 8500 and 8660; in experiment [24], 9230 and 9400; in experiment [25], 1960; in [26], 15; in [27] it was 330. Besides, the MIF of Fm in [28] is 3200; in experiment [29], 9340 and 9220; in experiment [30] it was 175; in [31] it was 166; in the experiment with Alpha fetoprotein [32] it was 47; with Alpha fetoprotein [33] it was 47. For the same substance, the MIF of Fm with Alpha fetoprotein [34] was determined as 61; with Alpha fetoprotein [35], 75; in [36], 792; in experiment [38], 9440; in experiment [39] it was 163. In addition, the MIF AVG in experiment [37] worked out at 31.7. In experiment [37], the MIF of FL1 is 32 and 34 and 29.
